Test results taken from article PMC9507969, “Visualizing maturation factor extraction from the nascent ribosome by the AAA-ATPase Drg1” (Nature Structural & Molecular Biology, 2022).
Residue numbers refer to the chain shown, from its start. In names and notes the source's numbering stands. Values belong to the binder of their own block, whether it stands above or below them.

What was measured:
[1] = biological target: T1, Rlp24 (ribosomal-like protein 24) on the pre-60S particle (S. cerevisiae (endogenous in the yeast …, UniProt Q07915 1-199)); experiment: co-IP; affinity purification of pre-60S particles via Bud20-TAP from S. cerevisiae crm1^T539C (untreated, LmB and/or diazaborine; ARX1 or Δarx1 background), SDS-PAGE and western blotting; conditions: partners not purified
T1 construct: Ribosomal-like protein 24 (Rlp24) of S. cerevisiae

[2] = biological target: T2, Drg1 (diazaborine resistance gene 1), wild type, purified (S. cerevisiae, UniProt P32794 1-780); experiment: cryo-EM structure; purified Drg1 (1.75 mg/ml, 12 µM) mixed 1:1 with 200 nM export-competent Bud20-TAP pre-60S particles, 2 mM ATPγS, 10 minutes; particle-bound Drg1 and free Drg1 hexamers picked from the same dataset; conditions: both partners purified
T2 construct: Drg1 (AFG2), hexameric type-II AAA-ATPase of S. cerevisiae, wild type; Hexamer in the cryo-EM maps; also called DRG1 (AFG2); AAA-ATPase Drg1; source: overexpressed in yeast as GST fusion (CuSO4-induced), purified on GSH-agarose, eluted by Prescission protease cleavage
T2 sequence: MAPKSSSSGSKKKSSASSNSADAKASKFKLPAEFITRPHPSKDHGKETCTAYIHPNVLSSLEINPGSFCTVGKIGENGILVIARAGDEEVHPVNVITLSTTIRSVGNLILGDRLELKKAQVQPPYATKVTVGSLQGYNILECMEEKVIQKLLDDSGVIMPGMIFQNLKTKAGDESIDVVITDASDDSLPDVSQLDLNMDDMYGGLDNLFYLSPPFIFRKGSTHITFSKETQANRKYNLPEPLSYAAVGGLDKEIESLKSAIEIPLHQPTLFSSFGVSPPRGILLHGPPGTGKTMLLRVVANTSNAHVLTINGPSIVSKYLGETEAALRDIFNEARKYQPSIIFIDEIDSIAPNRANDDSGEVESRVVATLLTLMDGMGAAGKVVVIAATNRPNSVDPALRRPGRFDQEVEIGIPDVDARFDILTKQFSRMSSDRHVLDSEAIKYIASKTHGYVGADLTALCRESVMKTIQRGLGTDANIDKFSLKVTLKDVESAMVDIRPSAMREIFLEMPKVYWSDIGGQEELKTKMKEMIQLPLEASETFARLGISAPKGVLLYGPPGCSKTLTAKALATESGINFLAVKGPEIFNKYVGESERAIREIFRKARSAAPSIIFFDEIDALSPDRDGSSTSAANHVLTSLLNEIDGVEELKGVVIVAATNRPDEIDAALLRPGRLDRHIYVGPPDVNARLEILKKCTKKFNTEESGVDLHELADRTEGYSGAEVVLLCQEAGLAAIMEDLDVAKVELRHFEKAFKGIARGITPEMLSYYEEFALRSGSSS

[3] = biological target: T2, Drg1 (diazaborine resistance gene 1), …; experiment: SPR; Biacore X100; GST-Rlp24C amine-coupled on a CM5 chip, GST in the reference cell; 75-10,000 nM Drg1 injected with 1 mM ATPγS; 20 mM HEPES, 10 mM KCl, 2.5 mM MgCl2, 100 mM NaCl, 0.05% Tween-20, 1 mM DTT, pH 7.5; one-site binding hyperbola on normalized RU; conditions: both partners purified
[4] = biological target: T2, Drg1 (diazaborine resistance gene 1), …; experiment: cross-linking; pre-60S particles purified via Arx1-TAP from drg1-18 (TEV eluate) incubated with 150 µg purified Drg1 and 1 mM ATPγS, cross-linked with 1.5 mM DSS or BS3 (isotopically labeled), 30 minutes, 30 °C; LC-MS/MS, xQuest/xProphet; conditions: both partners purified
[5] = biological target: T2, Drg1 (diazaborine resistance gene 1), …; experiment: pull-down; GST-tagged bait on GSH-agarose beads; 80 µg Drg1 in 120 µl binding buffer (20 mM HEPES-KOH, 150 mM potassium acetate, 5 mM magnesium acetate, 0.1% Tween-20, 1 mM DTT, pH 6.8); 1 mM ATP or ATPγS or no nucleotide; 60 minutes, room temperature; conditions: both partners purified

binding result [1]: binds
B1: Bud20-TAP (natural protein, S. cerevisiae)
chain: MGRYSVKRYKTKRRTRDLDLIYNDLSTKESVQKLLNQPLDETKPGLGQHYCIHCAKYMETAIALKTHLKGKVHKRRVKELRGVPYTQEVSDAAAGYNLNKFLNRVQEITQSVGPEKESNEALLKEHLDSTLANVKTTEPTLPWAAADAEANTAAVTEAESTASAST
notes: Bud20 of S. cerevisiae; For cryo-EM the Protein A part of the tag was removed by TEV cleavage; source: expressed in S. cerevisiae crm1^T539C; bait of the pre-60S particle purification

binding result [2]: binds
B2: Arx1 on the pre-60S particle (natural protein, UniProt Q03862 1-593, looked up)
chain: MALAISHEDTQILLKDKNILQESVLNKYRTAGQIAQTALKYVTSLINDSYHSKTTQRQLTVPELCLLTDSFILTRLEQYYKNKVNERGIAIPTTIDIDQISGGWCPEIDDTQNLLNWNKGKDSTFASSVTGTLRPGDLVKITLGVHIDGYTSEVSHTMVIYPVDETKPILQPTGPLLGGKADAVAAAHIAMETVVALLACALTPEKLPASLGGTSSGITGQLIRTIVDTIARSYNCGVVPGSRVRRIRRFLAGQNEGIVAEREYKGVVWTESHQEADLLSNTDAKDLTVVDRGQSTPFTNVSAIPSDDFVVQSGEVYLIDLKMASLEHCTKKGLVTLETVDSYTGKSHKAGELIARPGAYVRDFAQTHILKLKTSRQLLTKIDKQGVYPFKLSHLSSNFPFVHENEEELQSLKKDLKSFRLGMSEISNNYLCVESPIQIARWVPWDHILKATNPNGNLSYDATSTLTLPGHELPLPKLGVSAIKLKSLMNSTKESISLPVARECNTIVLCDSSVSTTDRPELLRLTGGSKTCQPSWIHSQHELNPQDSIVQGIFQLATLAKDKRFGLLLKETQPMKQKSVETSNGGVEETMKM
notes: Arx1 of S. cerevisiae, maturation factor at the exit of the polypeptide exit tunnel; source: endogenous, on pre-60S particles purified via Bud20-TAP from S. cerevisiae crm1^T539C after LmB treatment

Kd [3]: 2700 nM
B3: GST-Rlp24C (Rlp24 C domain, aa 146-199) (domain or fragment, S. cerevisiae, UniProt Q07915 146-199, looked up)
chain: AKEQERAESVSEQEESEEEEEDMEIDSDEEEEEQLEKQKILLKNRRRNTKKIAF
notes: Ribosomal-like protein 24 (Rlp24) of S. cerevisiae, C domain, aa 146-199; In the ATPase assays a HIS6-tagged Rlp24C made in E. coli was used instead of the GST fusion; source: purified

binding result [4]: binds
B4: Nog1 on the pre-60S particle (natural protein, UniProt Q02892 1-647, looked up)
chain: MQLSWKDIPTVAPANDLLDIVLNRTQRKTPTVIRPGFKITRIRAFYMRKVKYTGEGFVEKFEDILKGFPNINDVHPFHRDLMDTLYEKNHYKISLAAISRAKSLVEQVARDYVRLLKFGQSLFQCKQLKRAALGRMATIVKKLRDPLAYLEQVRQHIGRLPSIDPNTRTLLICGYPNVGKSSFLRCITKSDVDVQPYAFTTKSLYVGHFDYKYLRFQAIDTPGILDRPTEEMNNIEMQSIYAIAHLRSCVLYFMDLSEQCGFTIEAQVKLFHSIKPLFANKSVMVVINKTDIIRPEDLDEERAQLLESVKEVPGVEIMTSSCQLEENVMEVRNKACEKLLASRIENKLKSQSRINNVLNKIHVAQPQARDDVKRTPFIPESVKNLKKYDPEDPNRRKLARDIEAENGGAGVFNVNLKDKYLLEDDEWKNDIMPEILDGKNVYDFLDPEIAAKLQALEEEEEKLENEGFYNSDDEEEIYDGFEASEVDDIKEKAAWIRNRQKTMIAEARNRKSLKNKAIMPRSKLTKSFGKMEEHMSTLGHDMSALQDKQNRAARKNRYVERGSDVVFGDQDALTASTENGVKLRQTDRLLDGVADGSMRSKADRMAKMERRERNRHAKQGESDRHNAVSLSKHLFSGKRGVGKTDFR
notes: Nog1 of S. cerevisiae; source: endogenous, on pre-60S particles purified from S. cerevisiae via Bud20-TAP (cryo-EM, blots) or Arx1-TAP (cross-linking)

binding result [5]: binds
B5: GST-Rlp24C RKK>E (R191E, K195E, K196E) (domain or fragment, S. cerevisiae, UniProt Q07915 146-199, looked up)
chain: B3 chain with R46E, K50E, K51E
notes: Rlp24 of S. cerevisiae, C domain aa 146-199 with three exchanges in the tail; In the ATPase assay the HIS6-tagged form of this variant was used
